Data as given in paper PMC9335916 (ACS Central Science, 2022).

Biological target: trypsin from porcine pancreas (porcine, UniProt P00761 9-231)
Test: native MS

trypsin from porcine pancreas, sequence (P00761 9-231): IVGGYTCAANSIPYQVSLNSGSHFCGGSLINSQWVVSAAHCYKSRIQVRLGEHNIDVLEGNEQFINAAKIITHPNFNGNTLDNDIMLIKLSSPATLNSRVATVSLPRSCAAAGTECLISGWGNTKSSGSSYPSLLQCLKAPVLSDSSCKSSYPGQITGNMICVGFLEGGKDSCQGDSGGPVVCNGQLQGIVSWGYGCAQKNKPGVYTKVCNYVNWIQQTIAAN

B1: Soybean trypsin inhibitor (natural protein)
chain: DFVLDNEGNPLENGGTYYILSDITAFGGIRAAPTGNERCPLTVVQSRNELDKGIGTIISSPYRIRFIAEGHPLSLKFDSFAVIMLCVGIPTEWSVVEDLPEGPAVKIGENKDAMDGWFRLERVSDDEFNNYKLVFCPQQAEDDKCGDIGISIDHDDGTRRLVVSKNKPLVVQFQKLDKESL
apparent Kd (without RF correction): 27.1 ± 8.4 µM
